Values of other authors in article PMC12475976.

Target: SREBF1 (Homo sapiens) (UniProt P36956)
Sequence (P36956 whole entry): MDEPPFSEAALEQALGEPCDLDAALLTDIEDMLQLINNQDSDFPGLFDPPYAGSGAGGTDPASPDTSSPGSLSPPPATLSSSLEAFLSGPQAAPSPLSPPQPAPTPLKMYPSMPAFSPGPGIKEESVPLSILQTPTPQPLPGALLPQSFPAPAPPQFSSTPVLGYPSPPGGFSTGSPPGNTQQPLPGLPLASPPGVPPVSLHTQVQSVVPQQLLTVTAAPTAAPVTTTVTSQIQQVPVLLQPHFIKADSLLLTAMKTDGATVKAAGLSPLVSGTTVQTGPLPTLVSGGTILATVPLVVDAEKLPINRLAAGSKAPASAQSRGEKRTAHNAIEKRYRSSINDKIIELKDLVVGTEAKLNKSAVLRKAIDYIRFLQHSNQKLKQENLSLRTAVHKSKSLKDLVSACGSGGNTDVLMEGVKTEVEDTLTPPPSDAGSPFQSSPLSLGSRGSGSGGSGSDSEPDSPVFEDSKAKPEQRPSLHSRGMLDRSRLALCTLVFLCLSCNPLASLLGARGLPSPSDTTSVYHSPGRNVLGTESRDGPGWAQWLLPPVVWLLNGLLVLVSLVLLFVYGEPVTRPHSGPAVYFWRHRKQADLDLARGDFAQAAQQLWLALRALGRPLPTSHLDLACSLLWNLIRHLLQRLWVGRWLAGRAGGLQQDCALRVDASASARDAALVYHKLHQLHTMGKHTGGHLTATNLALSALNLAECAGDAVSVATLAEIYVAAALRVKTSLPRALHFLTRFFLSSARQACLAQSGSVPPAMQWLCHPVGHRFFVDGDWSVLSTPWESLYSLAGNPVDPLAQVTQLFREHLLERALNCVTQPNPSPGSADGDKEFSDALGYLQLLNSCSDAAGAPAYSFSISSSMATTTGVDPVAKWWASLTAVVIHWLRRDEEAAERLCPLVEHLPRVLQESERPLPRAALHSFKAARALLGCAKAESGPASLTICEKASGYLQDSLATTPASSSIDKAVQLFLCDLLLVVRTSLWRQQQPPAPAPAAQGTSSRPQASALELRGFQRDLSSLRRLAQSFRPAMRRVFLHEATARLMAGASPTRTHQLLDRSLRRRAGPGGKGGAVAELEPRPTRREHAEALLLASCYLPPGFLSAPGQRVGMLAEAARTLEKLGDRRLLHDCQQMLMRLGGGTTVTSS

Chain of Vav2 (P52735 whole entry): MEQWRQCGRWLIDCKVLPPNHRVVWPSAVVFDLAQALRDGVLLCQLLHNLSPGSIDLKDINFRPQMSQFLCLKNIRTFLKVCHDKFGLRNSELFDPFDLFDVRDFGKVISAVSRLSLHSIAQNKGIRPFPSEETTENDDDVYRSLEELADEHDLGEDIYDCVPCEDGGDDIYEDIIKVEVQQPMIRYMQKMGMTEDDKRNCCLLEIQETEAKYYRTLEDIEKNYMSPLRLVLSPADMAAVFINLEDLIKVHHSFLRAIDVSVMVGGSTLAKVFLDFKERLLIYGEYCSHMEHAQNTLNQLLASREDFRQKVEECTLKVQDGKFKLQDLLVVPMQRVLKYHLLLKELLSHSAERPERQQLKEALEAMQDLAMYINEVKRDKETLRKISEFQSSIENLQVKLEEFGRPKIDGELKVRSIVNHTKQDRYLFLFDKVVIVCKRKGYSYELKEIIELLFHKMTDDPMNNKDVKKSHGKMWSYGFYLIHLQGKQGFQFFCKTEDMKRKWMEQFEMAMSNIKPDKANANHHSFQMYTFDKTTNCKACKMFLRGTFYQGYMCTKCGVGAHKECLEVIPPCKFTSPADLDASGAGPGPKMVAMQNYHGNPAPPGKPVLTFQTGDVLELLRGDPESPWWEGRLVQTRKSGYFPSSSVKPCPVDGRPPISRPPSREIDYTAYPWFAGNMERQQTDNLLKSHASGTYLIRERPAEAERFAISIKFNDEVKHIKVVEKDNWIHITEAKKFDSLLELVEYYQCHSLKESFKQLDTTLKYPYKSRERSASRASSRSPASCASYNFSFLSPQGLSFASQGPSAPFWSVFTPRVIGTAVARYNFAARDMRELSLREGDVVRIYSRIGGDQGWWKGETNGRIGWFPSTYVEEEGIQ

For Vav2 (from UniProt P52735), which Kd is on record?
The Kd was 8.3 nM.
